Measured values from the supplement of paper PMC9170038.

System: MS2 coat protein
Experiment: apparent KD of MS2 coat protein; higher = weaker reporter binding
Details: Eterna round: R107
How it was run: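 The buffer was 100 mM Tris-HCl pH 7.5 with 80 mM KCl and 4 mM MgCl2, used without or with constant ligand. In it, RNA switches transcribed on-chip from Illumina sequencing clusters were titrated with SNAP-549-labelled MS2 coat protein in twofold steps from 0.7 or 1.5 nM to 3 µM. Apparent KD for each design is the median of its normalised cluster binding-curve fits.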

[1] = input ligand: theophylline 20 uM
[2] = input ligand: theophylline 2 mM
[3] = input ligand: tryptophan 2.4 mM

Sequence | apparent KD of MS2 coat protein (input ligand: arginine 13.2 mM) | apparent KD of MS2 coat protein [1] | apparent KD of MS2 coat protein [2] | apparent KD of MS2 coat protein (input ligand: none) | apparent KD of MS2 coat protein [3]
AUACAUGAGGAUCACCCAUGUGAUGGCCGGCGAGGACCGGUACGGCCGCCACUCGUGAUCCGUCCUGAGAGCAAAGCCCUCAACA [Lequcele] | 80.1 nM | 450 nM | 199 nM | – | –
CUUGAUAACUGAAGGAGCGAGAAACCCUACAUGAGGAUCACCCAUGUAUACACGGGAACUUCUCAGGUAGGUCGCAGUAUGUCAA [Teveor] | 90.6 nM | 89.3 nM | 165 nM | 54.4 nM | 71.5 nM
CGGUACAUGAGGAUCACCCAUGUGUCGGAUACCAGAGAGCCGUCUCUCCCUUGGCAGCUGGUUUUACAUGAGGAUCACCCAUGUG [Exclusion Theophylline A GF20] | 12.5 nM | 15.2 nM | – | – | 12.6 nM
UUUUUCGCGGGCGAUACCAGCUUGAUCGUACUGGCCUGGUACAUGAGGAUCACCCAUGUAAGCCCUUGGCAGCGCGCGGGAGAAG [Exclusion - Theophylline B Attempt #1 (HarryS)] | 11.5 nM | 14.6 nM | 20.2 nM | 12.7 nM | 15.2 nM
AAUUCCUCACAUGAGGAUCACCCAUGUGAAGGAGCGCGGAAUAACGCAGGUAGGUCGCACAUGGAAACCGCUGCGAAAGCAGCAA [MAT - Exclusion Arginine A - Mod of Eli - D26] | 13.1 nM | 24 nM | 18.1 nM | 18.7 nM | 16.3 nM
CGUGUCGUAACUGAUACCAGUGUACUGACAUGAGGAUCACCCAUGUUGGGUUUUGUUGUACACCCUUGGCAGCAGAAUCGAUACG [AstrosExyTheB#7] | 46.3 nM | 94 nM | – | – | 75.1 nM
UCCUGCAGAGCGGCCGCCACUGUAUUGCGUGAGGAUGACCCAACAUGAGGAUCACCCAUGUUGUUUAGGACCGGGCUUGCCACGA [opmullin%] | 13.7 nM | 21.2 nM | 15 nM | – | –
ACAUGAGGAUCACCCAUGUCUGCCACUGAUACCAGCGGAAGCCAACGCCCUUGGCAGCAGAACAUGAGGAUCACCCAUGUAGGCA [Same State Theophylline A GF26] | 52.8 nM | 180 nM | – | – | 256 nM
GCAUCCUAGUCGGCCGCCACUGGUAUGAACACCUUCACCCGUGUGCACAUGAGGAUCACCCAUGUUAGGACCGGGACUAGGAUGC [SSTryp B #20] | 10 nM | 11.2 nM | 9.67 nM | – | –
AGUACCAAUGAGGAUACCAGAGUGCGACGCCGAAACCUUGACAUGAGGAUCACCCAUGUACUCCCUUGGCAGCCUGUACUUGCCA [theeternabot_exclusion_MS2_Theo_B_17] | 22.8 nM | 40.7 nM | – | – | 34.9 nM
CUGUACAUCUCGGCCGCCACUGACAUGAGGAUCACCCAUGUAGUGCCGAUGAGAGACUUAUCGGCCAGGACCGGGAGGUGUGCAG [SSTryp B #32] | 7.57 nM | 10.1 nM | 7.83 nM | 9.94 nM | 11.9 nM
GGUUACUCUACGGCCGCCACUGGGCAUGUAAAUAACAUGAGGAUCACCCAUGUGGAUUAAAAUUACAGGACCGGGUAGUGUAACC [Tryptophan B 21] | 86.6 nM | 239 nM | 345 nM | 300 nM | 36.1 nM
AAUCUGUCGGGUGAUACCAGCCUCGGCACGUCUCGUGCCGAACAUGAGGAUCACCCAUGUGGCCCUUGGCAGCACAUGACAAAUC [Teaton] | 71.8 nM | 729 nM | – | – | 606 nM
CCUCACGAAAUCGAUGAAAGCAUGUGGCACCGAGGACCGGUACGGCCGCCACUCGCAUCCACACAUGAGGAUCACCCAUGUAAGA [theeternabot_exclusion_MS2_Trp_A_9] | 27.3 nM | 37.6 nM | 59.6 nM | – | –
GAGACGUCGGGAAGGAGCGCAUCCAAACCACACAUGAGGAUCACCCAUGUAUAAAUAUGCAUGCAGGUAGGUCGCCCGGUGUCCC [Diaxeon] | 59.7 nM | 125 nM | 97.8 nM | 87.2 nM | 75.1 nM
GUGUACAUGAGGAUCACCCAUGUCGAGUUACGAGGACCGGUACGGCCGCCACUCGGCGGCUCGACACGGAUAGCGAUGCGUUGCU [#18 Exclusion Tryptophan A] | 24.6 nM | 49.5 nM | 44.1 nM | – | –
AAUUAAACAUCGGCCGCCACUUACUCAUGAGGUAACAACAUGAGGAUCACCCAUGUUUGAGGAUCAAGGACCGGGAUGUAAUUUU [AstrosSSTryB#3] | 28 nM | 40.3 nM | 35.1 nM | – | –
UGGUAUGUAGGAAGGAGCGCAUACUUCACAUGAGGAUCACCCAUGUCAAGACGUGAGUCAGUGCAGGUAGGUCGCCUAGUUAUGA [Same State - Arginine B (Freestyle 21)] | 31.2 nM | 49.1 nM | 36.1 nM | 42.9 nM | 33.7 nM

Sequence | apparent KD of MS2 coat protein (input ligand: arginine 13.2 mM) | apparent KD of MS2 coat protein [1] | apparent KD of MS2 coat protein [2] | apparent KD of MS2 coat protein (input ligand: none) | apparent KD of MS2 coat protein [3]
ACAUGAAGAACAGCGGUGGGCGCGCUCGAUACCAGUACUUUGAAAUACCCUUGGCAGCGACAUGAGGAUCACCCAUGUGAGAUGA [XTheo A #3] | 13 nM | 25.6 nM | 49.5 nM | 16.6 nM | 15.7 nM
GGUACAUGAGGAUCACCCAUGUAUGCGAGCCGAGGACCGGUACGGCCGCCACUCGCUUAACAUGAGGAUCACCCAUGUUUCUCGG [SSTA DOUBLE!!! :-D #15] | 90.9 nM | 157 nM | 120 nM | 94.9 nM | 108 nM
UCACGGCACUGAAGGAGCGAGUUGACAAACAUGAGGAUCACCCAUGUUAUGGGUUGUUAAUCUCAGGUAGGUCGCAGUUGUCGUG [Same State Arginine B GF 21] | 163 nM | 418 nM | 458 nM | 379 nM | 388 nM
ACCUCAAUGGAUGAUACCAGCUCAAGGACGAACAUGAGGAUCACCCAUGUGACGUGGUGUAGCCCUUGGCAGCAUACUGACACCU [theeternabot_sameState_MS2_Theo_B_24] | 34.6 nM | 49 nM | – | – | 39.1 nM
ACAUGAAGAACAGCGGUGGGCGCGCUCGAUACCAGUAUUUUAACCUACCCUUGGCAGCGACAUGAGGAUCACCCAUGUGAGAUGA [XTheo A #7] | 18.5 nM | 26.8 nM | – | – | 16.6 nM
AGAGUCAGACAAAAGUCUGGCUCAGCCGAAGGAGCGUCCGAAAGGACAGGUAGGUCGCGGUUACCUGAGGAUCACCCGGGUUCCU [ArgAS 25 #OpenEnded #AlternativeMS2] | 56.7 nM | 377 nM | 590 nM | 219 nM | 184 nM
GGAAUAAUGGCGGCCGCCACUAACUCAUAUACAUCAUGUACAUGAGGAUCACCCAUGUAGGUGUAUAGGACCGGGCCAUAAUUCC [39MS split4] | 20.1 nM | 27.3 nM | 25.1 nM | – | –
GUUAUGGACCUGGAUACCAGCUGGUACAAGGGCGGUCUACAUGAGGAUCACCCAUGUGUCAGCCCUUGGCAGCCAGCAACCGGCA [Teraus] | 9.36 nM | 12.5 nM | – | – | 8.95 nM
GAAAAUCCCGUACAUGAGGAUCACCCAUGUCGAGGACCGGUACGGCCGCCACUCGCACGCAUUGCAUUGGAGGGUCAGGUACGAG [Erenerrati] | 26.9 nM | 34.7 nM | 29.2 nM | 28.5 nM | 75.5 nM
GGAUAGGACACGGCCGCCACUGCCUAGGAUACUAGCAACAUUUGGGUACAAGAGGAUCACCCUUGUAGGACCGGGUGUCCUAUCG | 27.1 nM | 38.6 nM | 29.3 nM | 25 nM | 26 nM
AAUAAGCAGCUGCCUUCCUCAUGAGCAGAUACCAGCUAGGAAACUAGCCCUUGGCAGCUGCAACAUGAGGAUCACCCAUGUAAUA [(T)'-(M)'-(T1)-(T2)-(M1)-(M2)_Design4] | 22.4 nM | 81.2 nM | – | – | 43.7 nM
GAUGAACUAUUUGAUACCAGACUACAUGAGGAUCACCCAUGUGUGUUUAUACUUCAGUCAGUCCCUUGGCAGCAAAUAGUUUAUC [XTheo B #3] | 94.8 nM | 183 nM | – | – | 158 nM
AGUGUUGUCUGAAGGAGCGGCCCUUGAUCCUCAUGAGACAUGAGGAUCACCCAUGUCUCGGGCCAGGUAGGUCGCAGGCAUCACA [Omei Arg B SS v1] | 22.6 nM | 34.1 nM | 23.3 nM | 20.5 nM | 23.7 nM
AGUAGCUGCCGAAGGAGCGCCGUGUUCCUACAUGAGGAUCACCCAUGUAGCGUUGGGUUACGGCAGGUAGGUCGCGGCGGAUAGG [Same State - Arginine B / B] | 30 nM | 119 nM | 73.8 nM | 34.3 nM | 119 nM
AUGGCGUUGGUGAGGCGGUUUAAUGGCGAUACCAGCGUGGAAACACGCCCUUGGCAGCGCCAAAACAUGAGGAUCACCCAUGUUA [Budejovice] | 13.2 nM | 28 nM | 132 nM | 13.4 nM | 16.4 nM
UGGCGAGAAGGAAGGAGCGUCAGCUGAGUUACAUGAGGAUCACCCAUGUUUUACAUUGUGUGACAGGUAGGUCGCCUUCUGCCCU [SS-ArgB20] | 15.7 nM | 18.8 nM | 16.9 nM | 14 nM | 13.5 nM
GCUUGGGUGGCACAGCCCUGGCAGUGCGAUACCAGCACGGUAACGUGCCCUUGGCAGCGCACAUGAGGAUCACCCAUGUGGUGCG [#1 Exclusion - Theophylline A Attempt #25 (HarryS)] | 28.7 nM | 197 nM | – | – | 62.6 nM
